Measurements from patent US20240043522A1.

How the values were obtained:
[1] = target: biotinylated human FcRn protein (human) (UniProt P55899); assay: SPR (Biacore T200), biotinylated hFcRn captured on CAP chip, antibody as analyte
[2] = target: His-tagged recombinant human FcγRI/CD64 (human) (UniProt P12314); assay: SPR (Biacore T200), His-tagged FcγR captured by anti-His, antibody as analyte, 1:1 kinetic model
[3] = target: His-tagged recombinant human FcγRIIa/CD32a (R167) (human) (UniProt P12318); assay: as above
[4] = target: His-tagged recombinant human FcγRIIIa/CD16a (V158) (human) (UniProt P08637); assay: as above
[5] = target: His-tagged recombinant mouse FcγR4/CD16-2 (mouse); assay: as above
[6] = target: His-tagged recombinant human FcγRIIb/c/CD32b/c (human) (UniProt P31994); assay: as above
Sequence of His-tagged recombinant human FcγRIIb/c/CD32b/c (human) (P31994 46-217 limits assumed): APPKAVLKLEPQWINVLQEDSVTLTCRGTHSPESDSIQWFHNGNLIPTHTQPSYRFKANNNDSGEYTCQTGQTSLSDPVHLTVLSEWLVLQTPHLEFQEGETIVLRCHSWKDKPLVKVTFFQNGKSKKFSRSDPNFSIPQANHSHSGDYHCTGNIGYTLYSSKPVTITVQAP

Sequence of His-tagged recombinant human FcγRIIIa/CD16a (V158) (human) (P08637 17-208 F176V limits assumed): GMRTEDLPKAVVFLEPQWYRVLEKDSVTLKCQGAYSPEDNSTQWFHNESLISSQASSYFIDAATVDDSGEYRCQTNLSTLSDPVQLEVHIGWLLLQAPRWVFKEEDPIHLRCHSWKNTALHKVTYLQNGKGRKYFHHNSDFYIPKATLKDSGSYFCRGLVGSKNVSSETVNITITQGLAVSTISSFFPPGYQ
Sequence of His-tagged recombinant human FcγRI/CD64 (human) (P12314 16-288 limits assumed): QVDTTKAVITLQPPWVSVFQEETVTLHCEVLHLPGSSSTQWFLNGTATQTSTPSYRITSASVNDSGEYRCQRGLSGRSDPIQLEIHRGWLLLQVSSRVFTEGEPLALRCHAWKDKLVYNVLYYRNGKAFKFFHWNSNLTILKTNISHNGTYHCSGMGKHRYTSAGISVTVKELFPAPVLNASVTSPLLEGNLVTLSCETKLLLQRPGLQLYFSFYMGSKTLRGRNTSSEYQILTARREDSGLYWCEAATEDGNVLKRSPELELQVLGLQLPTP
Sequence of His-tagged recombinant human FcγRIIa/CD32a (R167) (human) (P12318 36-218 H167R limits assumed): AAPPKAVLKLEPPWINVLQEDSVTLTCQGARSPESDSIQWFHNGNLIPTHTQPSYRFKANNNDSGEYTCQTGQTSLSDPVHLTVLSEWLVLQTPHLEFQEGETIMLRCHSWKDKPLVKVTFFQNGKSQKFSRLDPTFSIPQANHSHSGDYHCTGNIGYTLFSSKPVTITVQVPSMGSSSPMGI

Kd [1]	Kd [2]	Kd [3]	Kd [4]	Kd [5]	Kd [6]	Substance
361 nM	0.8 nM	3280 nM	656 nM	827 nM	> 10000 nM	mab01 (adalimumab, IgG1 wild-type) (antibody)
263 nM						mab02 (adalimumab Fab, IgG1 L234A/L235A N297A, aglycosylated) (antibody)
342 nM		> 5000 nM	> 10000 nM	> 10000 nM	> 10000 nM	mab03 (adalimumab Fab, IgG2 Fc-backbone) (antibody)
357 nM	6.7 nM		> 10000 nM	> 5000 nM		mab04 (adalimumab Fab, IgG1 E269R, K322A) (antibody)
265 nM	> 10000 nM					mab05 (adalimumab Fab, IgG1 L234A/L235A P329A) (antibody)
528 nM						mab06 (adalimumab Fab, upside-down IgG1 Fc, no linker between CH1 and CH2) (antibody)
348 nM						mab07 (adalimumab Fab, upside-down IgG1 Fc with 19GS-linker between CH1 and CH2) (antibody)
